{
  "source": "patent US8563503B2",
  "about": "“Antibiotic, its nucleotide sequence, methods of construction and uses thereof” (Protein Design Lab. Ltd., priority 2011, dated 2013)",
  "molecules": {"B1": {"name": "PMC-SA1: Staphylococcus aureus pheromone AgrD I linked to C-terminus of allosteric colicin Ia′; SEQ ID NO. 13; plasmid pBHC-SA1 (protein)", "chain": "SDPVRITNPAAESLGYDSDGREIMGVDIYLNPPRVDVFKGTPPAWSSFGNKTIWGGNEWVDDSPTRSDIEKRDKEITAYKNTLSAQQKENENKRTEAGKRLSAAIAAREKDENTLKTLRAGNADAADITRQEFRLLQAELREYGFRTEIAGYDALRLHTESRMLFADADSLRISPREARSLIEQAEKRQKDAQNADKKAADMLAEYERRKGILDTRLSELEKNGGAALAVLDAQQARLLGQQTRNDRAISEARNKLSSVTESLNTARNALTRAEQQLTQQKNTPDGKTIVSPEKFPGRSSTNHSIVVSGDPRFAGTIKITTSAVIDNRANLNYLLSHSGLDYKRNILNDRNPVVTEDVEGDKKIYNAEVAEWDKLRQRLLDARNKITSAESAVNSARNNLSARTNEQKHANDALNALLKEKENIRNQLSGINQKIAEEKRKQDELKATKDAINFTTEFLKSVSEKYGAKAEQLAREMAGQAKGKKIRNVEEALKTYEKYRADINKKINAKDRAAIAAALESVKLSDISSNLNRFSRGLGYAGKFTSLADWITEFGKAVRTENWRPLFVKTETIIAGNAATALVALVFSILTGSALGIIGYGLLMAVTGALIDESLVEKANKFWGIYSTCDFIM", "modifications": "The peptide of PMC-SA1", "notes": "Staphylococcus aureus pheromone AgrD I linked to C-terminus of allosteric colicin Ia′; 13; plasmid pBHC-SA1"}},
  "key": {"[1]": {"test": "Immunization of mice, valence of mouse sera by indirect ELISA", "format": "in vivo", "details": "from valence of mouse sera", "description": "Allosteric peptide of Colicin Ia, i.e. Ia′, PMC-SA1 obtained in embodiment 1, wild-type colicin Ia and the anti-Staphylococcus aureus peptide (ZL01128836.1) which invented by the present inventor were taken respectively to immunize mice. After admixturing with the adjuvant, the above proteins were interaperitonea injected respectively to the mice by 50 μg per mouse for one time of foundational quantity and 50 μg per mouse for one time of additional quantity totally 5 times by two weeks interval. Indirect ELISA detection method was applied to detect the valence of mouse sera (Xiao Yi, et. al., Preparation and preliminary characterization of monoclonal antibodies against Pheromonicin-and-Staphylococcus aureus, Shanxi Medical Journal, 35(1): 6-7, 32 (2006)). The valence of mouse sera which immunized by wild type colicin Ia as well as anti-Staphylococcus aureus polypeptide (ZL01128836.1) was 10^−4 to 10^−5, while the valence of mouse sera which immunized by allosteric peptide of colicin Ia and PMC-SA1 was 10^−2 to 10^−3."}, "Enterococcus": {"system": "Enterococcus", "test": "MIC by Agar Doubling Dilution Method, clinical isolates", "format": "cell-based, Enterococcus faecalis", "details": "Enterococcus clinical strains", "summary_of_the_method": "(§1)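 MICs by agar doubling dilution on Mueller–Hinton agar (Enterococcus faecalis on MH supplemented with 5–10% defibrinated rabbit blood, 5% CO2). Inoculum 10^5 CFU/ml per spot by multipoint inoculator; plates read after 18–24 h at 37 °C. MIC is the lowest drug concentration with no growth.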"}, "E. coli": {"system": "E. coli", "test": "MIC by Agar Doubling Dilution Method, clinical isolates", "format": "cell-based", "details": "E. coli clinical strains", "summary_of_the_method": "as §1"}, "[2]": {"system": "Staphylococcus epidermidis (MRSE)", "test": "MIC by Agar Doubling Dilution Method, clinical isolates", "format": "cell-based", "details": "MRSE clinical strains", "summary_of_the_method": "as §1"}, "[3]": {"system": "Staphylococcus aureus (MSSA)", "test": "MIC by Agar Doubling Dilution Method, clinical isolates", "format": "cell-based", "details": "MSSA clinical strains", "summary_of_the_method": "as §1"}, "[4]": {"system": "Staphylococcus epidermidis (MSSE strain)", "test": "MIC by Agar Doubling Dilution Method, clinical isolates", "format": "cell-based", "details": "MSSE clinical strains", "summary_of_the_method": "as §1"}, "Baumanii": {"system": "Baumanii", "test": "MIC by Agar Doubling Dilution Method, clinical isolates", "format": "cell-based", "details": "Baumanii clinical strains", "summary_of_the_method": "as §1"}, "[5]": {"system": "Staphylococcus aureus (MRSA)", "test": "MIC by Agar Doubling Dilution Method, clinical isolates", "format": "cell-based", "summary_of_the_method": "as §1"}, "[6]": {"system": "ATCC 25923 penicillin-sensitive Staphylococcus aureus", "test": "Bacteria growth curve (A595 nm cloudiness), penicillin-sensitive Staphylococcus aureus", "format": "cell-based", "details": "drug 100 ng/ml, 37° C., A595 nm per hour", "description": "The bacterium was United States Reference Culture ATCC 25923 penicillin-sensitive Staphylococcus aureus. 2 microliter of bacteria solution (10^5 CFU/ml) was added into 10 ml culture solution containing 1% tryptone, 1% NaCl, 0.5% yeast extract, 0.5% glucose and 0.1% K2HPO4, totally prepared six groups. The first group as control was added 0.3 M NaCl+50 mM boric acid buffer fluid (i.e. blank preservative fluid for novel antibiotic, wild-type colicin Ia and protein produced by BL-21 engineering bacteria without plasmid, by the same volumes of antibiosis polypeptide liquid in the experimental group, the second group was added penicillin G sodium by 100 ng/ml, the third group was added wild-type colicin Ia by 100 ng/ml, the fourth group was added protein produced by BL-21 engineering bacteria without plasmid by 100 ng/ml, the fifth group was added recombinant protein that C-terminus of colicin Ia is fused other eight peptides by 100 ng/ml, and the sixth group was added the novel antibiotic PMC-SA1 by 100 ng/ml.\nThe solutions of the six groups were respectively put into 100 ml conical flask, 200 rpm, grew at 37° C. 100 μl was sampled per hour, and added onto 96 hole ELISA Plate and measured bacterium growth cloudiness by spectrophotometer (A595 nm) color comparison. The bacteria-growth curve was drawn up to compare the bacteriostasis efficacy of novel antibiosis."}, "[7]": {"system": "Staphylococcus aureus MRSA BAA-42", "test": "Protection test in vivo (intravenous injection) of infected mice", "parameters": "species or system Kungming mice", "summary_of_the_method": "(§2)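 Mice got a lethal intraperitoneal bacterial challenge, then one intravenous dose of drug in sterile water at 10, 5 or 2.5 mg/kg. Survival was checked every 24 h for 7–14 days, with death counted as the positive result.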"}, "[8]": {"system": "Staphylococcus aureus ATCC 29213", "test": "Protection test in vivo (intravenous injection) of infected mice", "parameters": "species or system Kungming mice", "details": "mice, infected with 4.6 × 10^5 cfu/ml i.p., drug once intravenous", "summary_of_the_method": "as §2"}, "[9]": {"system": "Pseudomonas aeruginosa Standard Strain (ATCC 27853)", "test": "Bacteria growth curve (A595 nm cloudiness), Pseudomonas aeruginosa", "format": "cell-based", "details": "drug 5 μg/ml, 37° C., A595 nm per hour", "description": "The experimental bacterium was Pseudomonas aeruginosa Standard Strain (ATCC 27853) purchased from the Center for General Microorganism of the Administration (CGMCC). 5 microliter bacteria solution (10^6 CFU/ml level bacterium amount) was added into 10 ml MH culture solution. Seven groups are prepared. 0.3 M NaCl+50 mM boric acid buffer fluid which amount was identical to amount of antibiosis polypeptide liquid in the experimental group was added as control in the first group, 5 μg/ml wild-type colicin Ia was added in the second group, 5 μg/ml PMC-SA1 was added in the third group, and 5 μg/ml PMC-PA was added in the fourth group.\nLiquid in the above groups was put into 100 ml conical flask, 200 rpm, grew at 37° C. 100 μl was sampled per hour, and added onto 96-hole Elisa Plate to measure bacteria grown cloudiness by spectrophotometer (A595 nm) color comparison. The bacteria growth curve was drawn up to compare the bacteriostasis efficacy of antibiosis polypeptide."}},
  "data": [
    {"molecule": "B1", "values": [
      {"measurement": "possibility of causing host allergic reaction relative to anti-Staphylococcus aureus polypeptide", "setting": "[1]", "result": "lower one to two order of magnitude"},
      {"measurement": "MIC50", "setting": "Enterococcus", "result": ">64", "unit": "µg/mL"},
      {"measurement": "MIC90", "setting": "Enterococcus", "result": ">64", "unit": "µg/mL"},
      {"measurement": "MIC50", "setting": "E. coli", "result": 16, "unit": "µg/mL"},
      {"measurement": "MIC90", "setting": "E. coli", "result": ">32", "unit": "µg/mL"},
      {"measurement": "MIC50", "setting": "[2]", "result": ">64", "unit": "µg/mL"},
      {"measurement": "MIC90", "setting": "[2]", "result": ">64", "unit": "µg/mL"},
      {"measurement": "MIC50", "setting": "[3]", "result": 0.5, "unit": "µg/mL"},
      {"measurement": "MIC90", "setting": "[3]", "result": 16, "unit": "µg/mL"},
      {"measurement": "MIC50", "setting": "[4]", "result": 1, "unit": "µg/mL"},
      {"measurement": "MIC90", "setting": "[4]", "result": 32, "unit": "µg/mL"},
      {"measurement": "Scope of MIC", "setting": "[4]", "result": "0.25 to 64", "unit": "µg/mL"},
      {"measurement": "MIC50", "setting": "Baumanii", "result": 32, "unit": "µg/mL"},
      {"measurement": "MIC90", "setting": "Baumanii", "result": ">64", "unit": "µg/mL"},
      {"measurement": "MIC50", "setting": "[5]; MRSA clinical strains", "result": "8 to 16", "unit": "µg/mL"},
      {"measurement": "MIC90", "setting": "[5]; MRSA clinical strains", "result": ">16", "unit": "µg/mL"},
      {"measurement": "Scope of MIC", "setting": "[5]; MRSA clinical strains", "result": "<0.25 to 64", "unit": "µg/mL"},
      {"measurement": "in vitro antibacterial activity relative to oxacillin, standardized by same drug molecular number in unit volume", "setting": "[5]; Staphylococcus aureus, MRSA", "result": "1,240 times"},
      {"measurement": "in vitro antibacterial activity relative to vancomycin, standardized by same drug molecular number in unit volume", "setting": "[5]; Staphylococcus aureus, MRSA", "result": "three"},
      {"measurement": "growth of penicillin-sensitive Staphylococcus aureus (bacteria-growth curve)", "setting": "[6]", "result": "restrained"},
      {"measurement": "ED50", "setting": "[7]; mice, infected with 6.5 × 10^5 cfu/ml i.p., drug once intravenous", "result": 4.12, "unit": "mg/kg"},
      {"measurement": "treatment effects on methicillin-resistant Staphylococcus aureus infection in vivo compared with vancomycin", "setting": "[7]; survival rate of mice, three dosage groups", "result": "far better treatment effects"},
      {"measurement": "ED50", "setting": "[8]", "result": 10.35, "unit": "mg/kg"},
      {"measurement": "growth of Pseudomonas aeruginosa (bacteria growth curve)", "setting": "[9]", "result": "can not be effectively restrained"}
    ]}
  ]
}
